Reference: paper PMC5740878

Biological target: UHRF1-mCherry (UniProt Q96T88)
Test: FRET or BRET; FLIM-FRET in fixed HeLa cells 24 h after co-transfection of TIP60-eGFP WT/mutants (donor) and UHRF1-mCherry (acceptor) 1:1; two-photon excitation at 930 nm; E = 1-(τDA/τD); one-component and two-component analysis of decays

Sequence of UHRF1-mCherry (Q96T88 whole entry): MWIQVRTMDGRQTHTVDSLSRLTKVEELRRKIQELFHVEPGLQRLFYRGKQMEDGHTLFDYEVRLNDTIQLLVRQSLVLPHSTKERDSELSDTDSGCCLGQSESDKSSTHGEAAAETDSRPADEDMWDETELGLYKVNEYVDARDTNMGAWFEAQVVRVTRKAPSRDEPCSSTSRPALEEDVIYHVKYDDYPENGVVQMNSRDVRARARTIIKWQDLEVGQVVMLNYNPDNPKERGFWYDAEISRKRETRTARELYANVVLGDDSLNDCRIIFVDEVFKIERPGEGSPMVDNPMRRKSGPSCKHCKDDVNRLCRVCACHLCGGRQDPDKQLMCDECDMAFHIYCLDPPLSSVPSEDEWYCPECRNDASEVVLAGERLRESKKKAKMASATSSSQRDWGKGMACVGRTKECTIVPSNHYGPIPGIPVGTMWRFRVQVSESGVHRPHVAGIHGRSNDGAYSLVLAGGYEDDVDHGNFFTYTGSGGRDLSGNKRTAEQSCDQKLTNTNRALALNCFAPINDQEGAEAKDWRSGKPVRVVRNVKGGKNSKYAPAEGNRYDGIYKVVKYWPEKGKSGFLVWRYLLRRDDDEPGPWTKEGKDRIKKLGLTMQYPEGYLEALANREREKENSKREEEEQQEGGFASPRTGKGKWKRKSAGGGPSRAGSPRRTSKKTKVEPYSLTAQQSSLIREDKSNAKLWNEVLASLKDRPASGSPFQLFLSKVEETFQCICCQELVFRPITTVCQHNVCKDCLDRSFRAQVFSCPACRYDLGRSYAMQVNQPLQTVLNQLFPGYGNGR
Sequence of TIP60∆CRD-eGFP (Q92993 whole entry): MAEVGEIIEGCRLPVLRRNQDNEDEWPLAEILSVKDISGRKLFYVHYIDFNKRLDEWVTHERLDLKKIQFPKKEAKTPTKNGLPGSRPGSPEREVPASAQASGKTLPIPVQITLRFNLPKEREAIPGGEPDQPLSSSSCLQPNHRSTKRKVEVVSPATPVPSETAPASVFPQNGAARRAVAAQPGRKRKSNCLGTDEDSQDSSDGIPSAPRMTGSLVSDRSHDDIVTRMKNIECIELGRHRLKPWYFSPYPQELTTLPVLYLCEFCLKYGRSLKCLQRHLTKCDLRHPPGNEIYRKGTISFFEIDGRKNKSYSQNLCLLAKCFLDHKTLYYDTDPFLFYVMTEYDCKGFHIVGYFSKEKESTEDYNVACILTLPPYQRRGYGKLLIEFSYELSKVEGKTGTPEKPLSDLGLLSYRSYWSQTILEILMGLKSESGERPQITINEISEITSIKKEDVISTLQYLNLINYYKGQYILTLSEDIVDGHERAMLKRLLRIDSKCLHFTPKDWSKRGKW

average FRET: 12.2%
average FRET of the short lifetime component, two-component model: 43%
mean short lifetime component (τ1), two-component model: 1.4 ns
population (α1) of the interacting short lifetime component: 19%
Substance: TIP60∆CRD-eGFP (from UniProt Q92993 1-513) (natural protein)
